The values that follow come from the Human Domainome abundance scans (Beltran et al. 2025).

± gives the uncertainty stated by the source.

B1: Kinesin-like protein KIF16B, residues 1213 to 1273; numbered along this chain, Q96L93 (parent)
chain: ETWTVFRRYSRFREMHKTLKLKYAELAALEFPPKKLFGNKDERVIAERRSHLEKYLRDFFS

In the series the parent is B1. Briefly: abundance fitness (aPCA) (normalised: wild type 0, dead -1); higher = more abundant; growth selection in yeast, the domain comes from the species named. As to conditions: Homo sapiens.
S61T: the abundance fitness was -0.296 ± 0.16.

On to S61V, for which the abundance fitness was -0.029 ± 0.099.

Consider S61Y, for which the abundance fitness is -0.81 ± 0.4.
